Reference: patent US20140221282A1 (AstraZeneca / MedImmune, published 2014)
Ends that are not written are not given here. Y‑shaped‑mPEG40KD = Y-shaped methoxy-PEG of 40 kDa attached to the Lys side chain; mPEG40KD = methoxy-PEG of 40 kDa

T1: human amylin receptor 3 (human, UniProt P30988 25-474; O60896 24-148)
T1 construct: whole, on cells; also called AMY3; Human AMY3
T1 sequence (looked up) 1: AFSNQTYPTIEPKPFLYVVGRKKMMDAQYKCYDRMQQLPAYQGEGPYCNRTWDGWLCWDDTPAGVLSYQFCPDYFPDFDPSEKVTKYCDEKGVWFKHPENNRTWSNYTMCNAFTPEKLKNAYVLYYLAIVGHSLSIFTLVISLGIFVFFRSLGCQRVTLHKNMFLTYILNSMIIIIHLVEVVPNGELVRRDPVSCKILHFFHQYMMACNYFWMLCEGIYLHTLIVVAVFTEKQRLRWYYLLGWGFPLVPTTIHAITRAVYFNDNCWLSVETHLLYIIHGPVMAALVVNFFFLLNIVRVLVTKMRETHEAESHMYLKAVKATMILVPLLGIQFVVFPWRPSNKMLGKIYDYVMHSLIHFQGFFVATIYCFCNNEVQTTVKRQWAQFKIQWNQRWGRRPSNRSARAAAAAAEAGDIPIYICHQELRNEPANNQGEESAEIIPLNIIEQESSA
T1 sequence (looked up) 2: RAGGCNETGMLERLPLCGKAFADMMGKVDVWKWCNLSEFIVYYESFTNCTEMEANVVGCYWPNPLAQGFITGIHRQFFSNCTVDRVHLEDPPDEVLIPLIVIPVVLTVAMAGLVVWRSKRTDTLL

T2: amylin receptor of rat nucleus accumbens membranes (rat)
T2 chain 1: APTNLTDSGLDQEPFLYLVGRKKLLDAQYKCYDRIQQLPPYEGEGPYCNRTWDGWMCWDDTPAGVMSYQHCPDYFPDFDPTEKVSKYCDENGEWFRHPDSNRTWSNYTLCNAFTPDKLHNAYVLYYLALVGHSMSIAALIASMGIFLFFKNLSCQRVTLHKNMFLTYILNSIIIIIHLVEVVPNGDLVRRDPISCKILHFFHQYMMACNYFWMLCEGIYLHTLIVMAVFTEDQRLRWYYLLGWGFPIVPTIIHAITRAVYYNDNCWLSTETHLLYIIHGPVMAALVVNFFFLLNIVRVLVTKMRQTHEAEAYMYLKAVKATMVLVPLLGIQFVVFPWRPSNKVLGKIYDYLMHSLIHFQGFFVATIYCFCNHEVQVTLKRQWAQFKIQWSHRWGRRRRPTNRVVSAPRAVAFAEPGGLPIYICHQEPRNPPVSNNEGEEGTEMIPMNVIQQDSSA
T2 chain 2: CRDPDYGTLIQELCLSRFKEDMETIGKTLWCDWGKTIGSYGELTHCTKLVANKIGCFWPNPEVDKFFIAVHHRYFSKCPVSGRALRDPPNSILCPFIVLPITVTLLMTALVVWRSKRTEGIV


What was measured:
[1] = biological target: T3, amylin receptor of rat nucleus accumbens membranes (rat); test: competition with 125I-rat amylin, rat nucleus accumbens membranes
T3 construct: whole, on cells; native tissue membranes; also called RNA membranes

human amylin receptor 3 [2] = biological target: T1, human amylin receptor 3; test: competition with 125I-rat amylin, human AMY3 receptor
human amylin receptor 3 [3] = biological target: T1, human amylin receptor 3; test: cell-based or functional assay
[4] = biological target: T2, amylin receptor of rat nucleus …; test: competition with 125I-rat amylin, rat nucleus accumbens membranes

Row | Binder | IC50 [1] | IC50 (human amylin receptor 3 [2]) | Functional EC50, Human AMY3 (human amylin receptor 3 [3]) | IC50 [4]
1 | CNTATCATQRLANFLVHSSNNFGPK(Y‑shaped‑mPEG40KD)LPPTNVGSNTY-NH2 (ends and bridges not checked, also called Cmpd 79) [[K^26(Y-shaped-mPEG40KD)]-Cmpd 60] | 132 nM | 1130 nM | 1.74 nM | 
2 | CNTATCATQRLANFLVHSSNK(mPEG 40 kDa)FGPILPPTNVGSNTY-NH2 (ends and bridges not checked, also called Cmpd 85) [[K^22(mPEG40KD)]-Cmpd 58] |  |  | 1.66 nM | 148 nM
3 | CNTATCATQRLANFLVRSSNNLGPVLPPTK(mPEG40KD)VGSNTY-NH2 (ends and bridges not checked, also called Cmpd 74) [[K^31(mPEG40KD)]-Cmpd 56] |  |  |  | 75 nM
4 | KCNTATCATQRLANFLVRSSNNLGPVLPPTNVGSNTY-NH2 (ends and bridges not checked, also called Cmpd 49) [rat amylin, KCNTATCATQRLANFLVRSSNNLGPVLPPTNVGSNTY-NH2] | 0.1 nM |  |  | 
5 | CNTATCATQRLANFLVHSSNNFGPK(mPEG40KD)LPPTNVGSNTY-NH2 (ends and bridges not checked, also called Cmpd 77) [[K^26(mPEG40KD)]-Cmpd 60] | 39 nM | 60 nM | 0.078 nM | 
6 | CNTATCATQRLANFLVHSSNNFGPILPPTK(mPEG40KD)VGSNTY-NH2 (ends and bridges not checked, also called Cmpd 78) [[K^31(mPEG40KD)]-Cmpd 61] |  | 80 nM | 0.1 nM | 61 nM
7 | CNTATCATQRLANFLVHSSNNFGPIK(mPEG40KD)PPTNVGSNTY-NH2 (ends and bridges not checked, also called Cmpd 82) [[K^27(mPEG40KD)]-Cmpd 64] |  | 87 nM | 0.2 nM | 51 nM
8 | CNTATCATQRLANFLVHSSNNFGK(mPEG40KD)ILPPTNVGSNTY-NH2 (ends and bridges not checked, also called Cmpd 81) [[K^25(mPEG40KD)]-Cmpd 63] |  | 48 nM | 0.086 nM | 31 nM
9 | CNTATCATQRLANFLVHSSNNFGPILPPTNVGSK(mPEG40KD)TY-NH2 (ends and bridges not checked, also called Cmpd 95) [[K^35(mPEG40KD)]-Cmpd 58] |  | 143 nM | 0.122 nM | 
10 | CNTATCATQRLANFLVHSSNNFGPILPPK(mPEG40KD)NVGSNTY-NH2 (ends and bridges not checked, also called Cmpd 87) [[K^30(mPEG40KD)]-Cmpd 58] |  | 685 nM | 4.25 nM | 599 nM
11 | CNTATCATQRLANFLK(mPEG 40 kDa)HSSNNFGPILPPTNVGSNTY-NH2 (ends and bridges not checked, also called Cmpd 89) [[K^17(mPEG40KD)]-Cmpd 58] |  | 334 nM | 2.23 nM | 
12 | CNTATCATQRLANFLVHSSK(mPEG 40 kDa)NFGPILPPTNVGSNTY-NH2 (ends and bridges not checked, also called Cmpd 76) [[K^21(mPEG40KD)]-Cmpd 59] |  | 388 nM | 1.75 nM | 131 nM
13 | CNTATCATQRLANFLVHSSNNFGPILPPTNK(mPEG40KD)GSNTY-NH2 (ends and bridges not checked, also called Cmpd 92) [[K^32(mPEG40KD)]-Cmpd 58] |  | 1000 nM | 24.7 nM | 
14 | KCNTATCATQRLANFLVRSSNNLGPVLPPTK(mPEG40KD)VGSNTY-NH2 (ends and bridges not checked, also called Cmpd 73) [[K^31(mPEG40KD)]-Cmpd 55] |  |  |  | 86 nM

The remaining lines, values ahead:

Row | IC50 [1] | IC50 (human amylin receptor 3 [2]) | Functional EC50, Human AMY3 (human amylin receptor 3 [3]) | IC50 [4] | Binder
15 |  |  |  | 112 nM | CNTATCATQRLANFLVRSSK(mPEG 40 kDa)NLGPVLPPTNVGSNTY-NH2 (ends and bridges not checked, also called Cmpd 70) [[K^21(mPEG40KD)]-Cmpd 52]
16 |  |  |  | 104 nM | KCNTATCATQRLANFLVRSSK(mPEG 40 kDa)NLGPVLPPTNVGSNTY-NH2 (ends and bridges not checked, also called Cmpd 69) [[K^21(mPEG40KD)]-Cmpd 51]
17 |  | 111 nM | 0.41 nM | 79 nM | CNTATCATQRLANFLVHSSNNFK(mPEG40KD)PILPPTNVGSNTY-NH2 (ends and bridges not checked, also called Cmpd 80) [[K^24(mPEG40KD)]-Cmpd 62]
18 |  | 47 nM | 0.11 nM | 27 nM | CNTATCATQRLANFLVHSSNNFGPILPK(mPEG40KD)TNVGSNTY-NH2 (ends and bridges not checked, also called Cmpd 84) [[K^29(mPEG40KD)]-Cmpd 66]
19 |  | 240 nM | 2.82 nM | 611 nM | CNTATCATQRLANFLVHSSNNK(mPEG 40 kDa)GPILPPTNVGSNTY-NH2 (ends and bridges not checked, also called Cmpd 86) [[K^23(mPEG40KD)]-Cmpd 58]
20 |  | 77 nM | 0.034 nM |  | CNTATCATQRLANFLVHSSNNFGPILPPTNVGK(mPEG40KD)NTY-NH2 (ends and bridges not checked, also called Cmpd 94) [[K^34(mPEG40KD)]-Cmpd 58]
21 |  | 46 nM | 0.2 nM | 53 nM | CNTATCATQRLANFLVHSSNNFGPILK(mPEG40KD)PTNVGSNTY-NH2 (ends and bridges not checked, also called Cmpd 83) [[K^28(mPEG40KD)]-Cmpd 65]
22 |  | 238 nM | 0.85 nM |  | CNTATCATQRLANFLVK(mPEG 40 kDa)SSNNFGPILPPTNVGSNTY-NH2 (ends and bridges not checked, also called Cmpd 90) [[K^18(mPEG40KD)]-Cmpd 58]
23 |  | 860 nM | 1.69 nM |  | CNTATCATQRLANFLVHSSNNFGPILPPTNVK(mPEG40KD)SNTY-NH2 (ends and bridges not checked, also called Cmpd 93) [[K^33(mPEG40KD)]-Cmpd 58]
24 |  | 918 nM | 5.51 nM |  | CNTATCATQRLANFLVHSK(mPEG 40 kDa)NNFGPILPPTNVGSNTY-NH2 (ends and bridges not checked, also called Cmpd 91) [[K^20(mPEG40KD)]-Cmpd 58]
25 |  | 984 nM | 3.07 nM |  | CNTATCATQRLANFLVHSSNNFGPILPPTNVGSNK(mPEG40KD)Y-NH2 (ends and bridges not checked, also called Cmpd 96) [[K^36(mPEG40KD)]-Cmpd 58]
26 |  |  |  | 54 nM | CNTATCATQRLANFLVRSSNNLGPK(mPEG40KD)LPPTNVGSNTY-NH2 (ends and bridges not checked, also called Cmpd 72) [[K^26(mPEG40KD)]-Cmpd 54]
27 |  | 74 nM | 0.082 nM |  | CNTATCATQRLANFLVHSSNNFGPK(mPEG40KD)LPPTNVGSNTY-NH2 (ends and bridges not checked, also called Cmpd 88) [[K^26(mPEG40KD)]-Cmpd 58]
